# Data reported in US20170106051A1 (BAYLOR RESEARCH INSTITUTE, published 2017).
# T1: human DCIR (human, UniProt Q9UMR7 1-237)
# T1 construct: whole, on cells; The assay was on primary human blood DCs
# T1 sequence (looked up): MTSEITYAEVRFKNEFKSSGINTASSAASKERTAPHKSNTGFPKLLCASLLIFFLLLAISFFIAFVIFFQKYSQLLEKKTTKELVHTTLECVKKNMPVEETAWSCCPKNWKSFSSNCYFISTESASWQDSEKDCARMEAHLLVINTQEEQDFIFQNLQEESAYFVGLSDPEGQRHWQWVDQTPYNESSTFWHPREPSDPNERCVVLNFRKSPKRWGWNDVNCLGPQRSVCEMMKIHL
# B1: mAnti-DCIR_9E8_H-LV-hIgG4H-C-Flex-v1-hIL-10 antibody (antibody)
# heavy: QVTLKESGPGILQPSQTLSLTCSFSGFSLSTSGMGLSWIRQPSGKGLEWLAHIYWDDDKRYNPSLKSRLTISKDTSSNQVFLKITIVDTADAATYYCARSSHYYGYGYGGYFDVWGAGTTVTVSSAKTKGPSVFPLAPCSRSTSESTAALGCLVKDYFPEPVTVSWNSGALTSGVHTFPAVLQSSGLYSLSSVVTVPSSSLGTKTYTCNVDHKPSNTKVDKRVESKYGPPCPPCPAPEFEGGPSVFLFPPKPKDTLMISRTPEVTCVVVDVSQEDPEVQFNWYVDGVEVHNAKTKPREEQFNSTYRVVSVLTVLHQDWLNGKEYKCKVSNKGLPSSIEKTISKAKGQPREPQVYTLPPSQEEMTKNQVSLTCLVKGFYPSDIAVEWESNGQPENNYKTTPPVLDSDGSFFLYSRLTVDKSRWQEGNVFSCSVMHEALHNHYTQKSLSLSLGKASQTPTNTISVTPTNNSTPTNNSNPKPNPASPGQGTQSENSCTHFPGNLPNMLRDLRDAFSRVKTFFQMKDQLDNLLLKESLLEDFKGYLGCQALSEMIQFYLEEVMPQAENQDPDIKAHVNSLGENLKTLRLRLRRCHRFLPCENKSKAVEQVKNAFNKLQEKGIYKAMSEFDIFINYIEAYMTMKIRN
# light: NIVLTQSPASLAVSLGQRATISCRASESIHSYGNSFLHWYQQKPGQPPKLLIYLASNLESGVPARFSGSGSRTDFTLTIDPVEADDAATYYCQQNNEDPWTFGGGTKLEIKRTVAAPSVFIFPPSDEQLKSGTASVVCLLNNFYPREAKVQWKVDNALQSGNSQESVTEQDSKDSTYSLSSTLTLSKADYEKHKVYACEVTHQGLSSPVTKSFNRGEC
# notes: Mouse/human chimeric IgG4 kappa antibody with human IL-10 fused through a linker to the C-terminus of the heavy chain; also called anti-DCIR (9E8)-IL-10; Anti-DCIR-9E8-hIL-10
# B2: manti-hCD40_24A3.3F1_H-LV-hIgG4H-C-Flex-v1-hIL-10 antibody (antibody)
# heavy: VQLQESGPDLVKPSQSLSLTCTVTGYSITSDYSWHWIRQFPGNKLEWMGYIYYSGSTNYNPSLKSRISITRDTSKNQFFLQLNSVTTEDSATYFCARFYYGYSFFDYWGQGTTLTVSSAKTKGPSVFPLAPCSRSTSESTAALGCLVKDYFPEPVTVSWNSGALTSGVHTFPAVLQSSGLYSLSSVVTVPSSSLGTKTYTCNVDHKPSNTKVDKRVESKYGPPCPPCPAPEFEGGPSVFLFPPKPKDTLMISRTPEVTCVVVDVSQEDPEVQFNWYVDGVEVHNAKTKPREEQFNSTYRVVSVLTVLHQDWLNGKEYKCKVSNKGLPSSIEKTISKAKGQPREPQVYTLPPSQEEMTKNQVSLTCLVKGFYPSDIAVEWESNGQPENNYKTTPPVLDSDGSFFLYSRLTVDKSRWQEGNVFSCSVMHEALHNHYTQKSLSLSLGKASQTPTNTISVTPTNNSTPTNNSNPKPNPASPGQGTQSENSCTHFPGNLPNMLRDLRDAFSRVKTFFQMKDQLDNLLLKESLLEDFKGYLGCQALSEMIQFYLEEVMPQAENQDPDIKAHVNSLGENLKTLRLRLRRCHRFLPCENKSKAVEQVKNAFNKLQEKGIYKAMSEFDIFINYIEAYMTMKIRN
# light: QIVLTQSPAFMSASPGEKVTMTCSASSSVSYMHWYQQKSGTSPKRWIYDTSKLASGVPARFSGSGSGTSYSLTISSMEAEDAATYYCQQWSSNPLTFGAGTKLEIKRTVAAPSVFIFPPSDEQLKSGTASVVCLLNNFYPREAKVQWKVDNALQSGNSQESVTEQDSKDSTYSLSSTLTLSKADYEKHKVYACEVTHQGLSSPVTKSFNRGECAS
# notes: Mouse/human chimeric IgG4 kappa antibody with human IL-10 fused through a linker to the C-terminus of the heavy chain; also called anti-CD40 (24A3)-IL-10; Anti-CD40-24A3-hIL-10
# Experiments:
# human DCIR = target: T1, human DCIR; assay: flow cytometry on purified human blood pDCs, detection with anti-human IL-10
# Procedure: (§1) The ability of antibody-IL-10 fusion proteins to bind to human DCs was measured. Both myeloid DC (mDCs) and plasmacytoid DCs (pDCs) were purified from human blood. DCs were incubated for 20 min in ice in the presence of different concentrations of recombinant fusion proteins of antibody and IL-10 (FIG. 1). After vigorous washing, DCs were further stained with anti-human IL-10 to detect surface bound antibody-IL-10 fusion proteins using flow cytometry.
# human CD40 = target: T2, human CD40 (human, UniProt P25942 21-277); assay: flow cytometry on purified human blood mDCs, detection with anti-human IL-10
# T2 construct: whole, on cells; The assay was on primary human blood DCs; also called hCD40
# Procedure: as §1
# T2 sequence (P25942 21-277): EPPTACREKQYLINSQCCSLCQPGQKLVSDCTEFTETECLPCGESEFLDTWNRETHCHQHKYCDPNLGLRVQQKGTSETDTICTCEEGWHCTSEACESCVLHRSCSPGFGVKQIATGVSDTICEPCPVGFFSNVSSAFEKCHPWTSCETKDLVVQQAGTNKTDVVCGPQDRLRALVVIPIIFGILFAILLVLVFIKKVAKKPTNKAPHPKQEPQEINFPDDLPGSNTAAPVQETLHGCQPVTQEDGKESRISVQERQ
Binder,binding result (human DCIR),binding result (human CD40)
B1,binds,–
B2,–,binds
